In patent US9926375B2, “Anti-endoglin antibodies and uses thereof” (Tracon Pharmaceuticals, Inc., priority 2014, dated 2018):
Entries after “also recorded” stand apart in the source; their conditions may differ.

Key:
[1] = target: T1, human CD105 (Homo sapiens, UniProt P17813); experiment: ELISA binding of biotinylated TRC205 antibody to human CD105; conditions: from the binding curve
T1 construct: purchased R&D Systems 1097-EN
T1 sequence (P17813 26-586 limits assumed): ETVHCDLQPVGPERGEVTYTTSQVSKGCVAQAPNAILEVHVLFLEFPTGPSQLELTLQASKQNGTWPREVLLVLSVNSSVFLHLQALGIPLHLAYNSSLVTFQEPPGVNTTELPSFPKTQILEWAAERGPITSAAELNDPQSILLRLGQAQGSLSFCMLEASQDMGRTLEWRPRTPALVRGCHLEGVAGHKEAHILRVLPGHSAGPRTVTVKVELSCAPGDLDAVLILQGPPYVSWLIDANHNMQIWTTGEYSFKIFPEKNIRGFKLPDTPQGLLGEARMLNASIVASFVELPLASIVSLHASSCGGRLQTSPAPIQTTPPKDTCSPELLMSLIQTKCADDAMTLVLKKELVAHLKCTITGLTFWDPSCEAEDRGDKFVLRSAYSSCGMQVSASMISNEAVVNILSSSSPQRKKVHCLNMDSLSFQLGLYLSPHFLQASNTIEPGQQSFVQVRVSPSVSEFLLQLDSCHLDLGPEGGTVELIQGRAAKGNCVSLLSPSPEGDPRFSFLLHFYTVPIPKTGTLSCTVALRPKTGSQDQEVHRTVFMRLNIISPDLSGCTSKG
Protocol: An ELISA was established to determine the binding of biotinylated TRC205 antibody to human CD105 as follows: The TRC205 antibody (SEQ ID NO 89/SEQ ID NO 93; IgG4) was biotinylated using a Lightning-Link Biotin Conjugation Kit (Type A) (Innova Biosciences Cat. No. 704-0010) according to the manufacturer's instructions. […] After washing three times with PBST, a three-fold dilution series of biotinylated TRC205 antibody (10 μg/ml to 0.014 μg/ml) in PBST/2% BSA was added in duplicate to the plate. Following incubation for 1 hour at room temperature, the plate was washed three times with PBST and binding of the biotinylated TRC205 antibody was detected using streptavidin-HRP (Sigma Cat. No. 55512) and TMB substrate (Sigma Cat. No. T0440). OD450 nm values were measured on a Dynex MRX TCII plate reader.

[2] = system: NASH mice; experiment: Murine model of non-alcoholic steatohepatitis (NASH; STZ and high fat diet); format: in vivo, mouse
Source text: The purpose of this study was to examine the protective effects of endoglin antibodies on a murine model of NASH.
NASH was established by a single subcutaneous injection of STZ (Sigma, USA) after birth and feeding with a high fat diet (HFD; CLEA Japan, Japan) ad libitum after 4 weeks of age (day 28±2).
Randomization of mice into 6 groups of 10 mice was done at 9 weeks of age (day 63±2), the day before the start of treatment.
Group 3 (Positive control; Temlisartan Group): Ten NASH mice were be orally administered pure water supplemented with telmisartan at a dose of 10 mg/kg once daily from day 63 to 84.
Group 4 (Antibody M1043: M1043 Group): Ten NASH mice were intravenously administered vehicle supplemented with Antibody M1043 at a dose of 10 mg/kg twice weekly at day 63, 66, 70, 73, 77 and 80.
Group 5 (Antibody TRC105; TRC105 Group): Ten NASH mice were intravenously administered vehicle supplemented with Antibody TRC105 at a dose of 10 mg/kg twice weekly at day 63, 66, 70, 73, 77 and 80.
Group 6 (Antibody TRC205; TRC205 Group): Ten NASH mice were intravenously administered vehicle supplemented with Antibody TRC205 at a dose of 10 mg/kg twice weekly at days 63, 66, 70, 73, 77 and 80.
Mice in all groups were terminated for the following assays at 12 weeks of age.
H&E staining of liver tissue was conducted to estimate NAFLD Activity score.
Total NAS score represents the sum of scores for steatosis, lobular inflammation, and ballooning, and ranges from 0-8. Diagnosis of NASH (or, alternatively, fatty liver not diagnostic of NASH) should be made first, then NAS is used to grade activity. In the reference study, NAS scores of 0-2 occurred in cases largely considered not diagnostic of NASH, scores of 3-4 were evenly divided among those considered not diagnostic, borderline, or positive for NASH. Scores of 5-8 occurred in cases that were largely considered diagnostic of NASH.
Statistical tests were performed using Bonferroni Multiple Comparison Test. P values<0.05 were considered statistically significant.

[3] = target: T1, human CD105; experiment: Competition ELISA against biotinylated TRC205 antibody for binding to human CD105; conditions: biotinylated TRC205 55 ng/ml
Protocol: After washing three times with PBST, a three-fold dilution series of either human BMP9 (R&D Systems Cat. No. 3209-BP-010) (413 nM to 0.56 nM), or unlabelled TRC205 antibody (40 nM to 0.05 nM) or a single concentration of an irrelevant antibody (66 nM) was mixed with a fixed concentration of biotinylated TRC205 antibody (55 ng/ml) and added to the plate. Following incubation for 1 hour at room temperature, the plate was washed three times with PBST and binding of the biotinylated TRC205 antibody was detected using streptavidin-HRP (Sigma Cat. No. 55512) and TMB substrate (Sigma Cat. No. T0440). OD450 nm values were measured on a Dynex MRX TCII plate reader.

[4] = target: T2, mouse endoglin (Mus musculus, UniProt Q63961); experiment: Competition ELISA of mouse BMP9 against biotinylated M1043 for binding to mouse endoglin; conditions: 30 μg/ml to 0.004 μg/ml competitor; biotinylated M1043 40 ng/ml
T2 construct: purchased R&D Systems 1320-EN-025
T2 sequence (Q63961 27-581 limits assumed): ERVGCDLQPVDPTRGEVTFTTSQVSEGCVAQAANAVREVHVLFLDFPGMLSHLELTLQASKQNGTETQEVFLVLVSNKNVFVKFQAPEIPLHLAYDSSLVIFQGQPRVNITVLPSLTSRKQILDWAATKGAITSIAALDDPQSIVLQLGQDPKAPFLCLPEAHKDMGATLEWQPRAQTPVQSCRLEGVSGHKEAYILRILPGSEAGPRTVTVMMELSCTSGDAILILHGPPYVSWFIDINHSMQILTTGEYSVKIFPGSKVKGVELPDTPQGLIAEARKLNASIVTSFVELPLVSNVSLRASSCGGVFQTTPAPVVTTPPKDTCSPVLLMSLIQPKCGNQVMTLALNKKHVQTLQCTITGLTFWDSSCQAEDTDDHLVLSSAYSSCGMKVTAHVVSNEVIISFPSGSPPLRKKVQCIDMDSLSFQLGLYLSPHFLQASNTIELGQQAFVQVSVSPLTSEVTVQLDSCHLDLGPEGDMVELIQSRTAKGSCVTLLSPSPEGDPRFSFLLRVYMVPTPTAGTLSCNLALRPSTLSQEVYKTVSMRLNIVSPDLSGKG
Protocol: The ability of mouse BMP9 to compete with the rat antibody M1043 for binding to mouse endoglin was determined by competition ELISA as follows: 200 μg of M1043 antibody was biotinylated with a Lightning-Link biotinylation kit (Innova Biosciences, Cat. No. 704-0010) according to the manufacturers recommendations. Nunc Immuno MaxiSorp 96 well flat bottom plates (Fisher Cat. No. DIS-971-030J) were coated with mouse endoglin (R&D Systems, Cat. No. 1320-EN-025) at 1 μg/ml in PBS overnight at 4° C. The following day the plate was washed three times with PBST before blocking with PBST/3% Marvel at room temperature for 1 hour. A threefold dilution series (30 μg/ml to 0.004 μg/ml) of mouse BMP9 (R&D Systems, Cat. No. 5566-BP-010) or an irrelevant rat IgG1 was mixed with a fixed concentration of biotinylated M1043 (40 ng/ml), added to the plate and incubated for 1 hour at room temperature. Binding of the biotinylated antibody was detected via streptavidin-HRP (Sigma, Cat. No. 55512) and TMB substrate (Sigma, Cat. No. T0440). OD450 nm values were measured on a Dynex MRX TCII plate reader.

[5] = liver gene expression, mean ± SD, Normal-Vehicle 1.0

B1: TRC205: humanized and deimmunized anti-endoglin antibody (SEQ ID NO 89/SEQ ID NO 93; IgG4) (antibody, V domains shown)
VH: EVQLVESGGGLVKPGGSLRLSCAASGFTFSDAWMDWVRQAPGKGLEWVGEARSKASNHATYYAESVKGRFTISRDDSKNTLYLQMNSLKTEDTAVYYCTRWRRFFDSWGQGTLVTVSS
VL: DIQMTQSPSSLSASVGDRATITCRASSSVSYMHWYQQKPGKAPKPWAYATSNLASGVPSRFSGSGSGTDYTLTISSLQPEDFATYYCQQWSSNPLTFGGGTKVEIK
In the case of B1, the “EC50 of binding to human CD105” value [1] is reported as 0.046 µg/mL, the “Alpha-smooth muscle actin mRNA expression levels compared with the NASH-Vehicle group” value ([2]; Bonferroni, P<0.05) is reported as “significantly down-regulated” and the “Liver triglyceride contents compared with the NASH-Vehicle group” value ([2]; Bonferroni, P<0.05) is reported as “significant decreases”. The “Mean liver-to-body weight ratio compared with the NASH-Vehicle group” value ([2]; Bonferroni, P<0.05) was “tended to decrease; also recorded: no significant difference”, the “NAS compared with the NASH-Vehicle group” value ([2]; Bonferroni, P<0.05) was “significant decreases in NAS; also recorded: significant reductions of NAS” and the “Serum alanine aminotransferase (ALT) levels compared with the NASH-Vehicle group” value ([2]; Bonferroni, P<0.05) was “tended to decrease”. The “Serum alkaline phosphatase (ALP) levels compared with the NASH-Vehicle group” value ([2]; Bonferroni, P<0.05) was “significant decrease”, the “Serum aspartate aminotransferase (AST) levels compared with the NASH-Vehicle group” value ([2]; Bonferroni, P<0.05) was “tended to decrease” and the “Tissue inhibitor of metalloproteinase-1 mRNA expression levels compared with the NASH-Vehicle group” value ([2]; Bonferroni, P<0.05) was “tended to decrease”. For the same molecule, the “Tumor necrosis factor-alpha mRNA expression levels compared with the NASH-Vehicle group” value ([2]; Bonferroni, P<0.05) was “tended to increase”, the “F4/80-positive signals and cells in liver compared with the NASH-Vehicle group” value ([2]; F4/80 immunostaining, macrophage marker) was “Lower F4/80-positive signals and positive cells” and the “Alpha-SMA mRNA expression” value [2, 5] was 1.1 ± 0.3. The “MCP-1 mRNA expression” value [2, 5] was 9.3 ± 9.1, the “TIMP-1 mRNA expression” value [2, 5] was 6.0 ± 2.6 and the “TNF-α mRNA expression” value [2, 5] was 6.2 ± 2.4. For the same molecule, the Liver triglyceride ([2]; mean ± SD) was 29.3 ± 9.4 mg/g liver, the “Serum ALP” value ([2]; mean ± SD) was 264 ± 63 U/L and the “Serum ALT” value ([2]; mean ± SD) was 28 ± 16 U/L. The “Serum AST” value ([2]; mean ± SD) was 83 ± 41 U/L, the Sirius red-positive area ([2]; mean ± SD, liver sections) was 0.93 ± 0.14% and the “NAS (NAFLD Activity score)” value ([2]; mean ± SD, range 0-8, 10 mg/kg) was 3.6 ± 1.1. For the same molecule, the “Lobular inflammation score 0, number of mice” value ([2]; score 0 = No Foci) was 5, the “Hepatocyte ballooning score 0, number of mice” value ([2]; score 0 = None) was 1 and the “Steatosis score 1, number of mice” value ([2]; score 1 = 5-33%) was 6. The “Hepatocyte ballooning score 1, number of mice” value ([2]; score 1 = Few balloon cells) was 4, the “Lobular inflammation score 2, number of mice” value ([2]; score 2 = 2-4 foci/200x) was 4 and the “Steatosis score 2, number of mice” value ([2]; score 2 = >33-66%) was 3. The “Hepatocyte ballooning score 2, number of mice” value ([2]; score 2 = Many cells/prominent ballooning) was 4, the “Inflammatory cell infiltration in the liver” value ([2]; summary of lobular inflammation score and F4/80 immunostaining) was “reductions in inflammatory cell infiltration in the liver” and the “IC50 of competition with biotinylated TRC205 antibody” value [3] was 0.26 µg/mL.

B2: mouse BMP9: mouse BMP9 (R&D Systems, Cat. No. 5566-BP-010), endoglin ligand (protein)
chain: STGASSHCQKTSLRVNFEDIGWDSWIIAPKEYDAYECKGGCFFPLADDVTPTKHAIVQTLVHLKFPTKVGKACCVPTKLSPISILYKDDMGVPTLKYHYEGMSVAECGCR
For B2, the “Competition with biotinylated M1043 for binding to mouse endoglin” value [4] was “competed with biotinylated M1043 for binding to mouse endoglin”.
